Data set [1] has as its target T1, Polθ-hel WT (DNA polymerase theta helicase domain) (human, UniProt O75417 1-894). Kind of data set: fluorescence anisotropy. On the technique in general: Fluorescence polarisation rises when a labelled molecule tumbles more slowly, as on binding a larger partner.
In data set [2] the target is T1, Polθ-hel WT (DNA polymerase theta …). Kind of data set: EMSA. (In general: A gel shift assay detects complexes by their altered migration in electrophoresis.)
For data set [3] the target is unchanged. Kind of data set: cryo-EM structure.

T1 sequence (O75417 1-894): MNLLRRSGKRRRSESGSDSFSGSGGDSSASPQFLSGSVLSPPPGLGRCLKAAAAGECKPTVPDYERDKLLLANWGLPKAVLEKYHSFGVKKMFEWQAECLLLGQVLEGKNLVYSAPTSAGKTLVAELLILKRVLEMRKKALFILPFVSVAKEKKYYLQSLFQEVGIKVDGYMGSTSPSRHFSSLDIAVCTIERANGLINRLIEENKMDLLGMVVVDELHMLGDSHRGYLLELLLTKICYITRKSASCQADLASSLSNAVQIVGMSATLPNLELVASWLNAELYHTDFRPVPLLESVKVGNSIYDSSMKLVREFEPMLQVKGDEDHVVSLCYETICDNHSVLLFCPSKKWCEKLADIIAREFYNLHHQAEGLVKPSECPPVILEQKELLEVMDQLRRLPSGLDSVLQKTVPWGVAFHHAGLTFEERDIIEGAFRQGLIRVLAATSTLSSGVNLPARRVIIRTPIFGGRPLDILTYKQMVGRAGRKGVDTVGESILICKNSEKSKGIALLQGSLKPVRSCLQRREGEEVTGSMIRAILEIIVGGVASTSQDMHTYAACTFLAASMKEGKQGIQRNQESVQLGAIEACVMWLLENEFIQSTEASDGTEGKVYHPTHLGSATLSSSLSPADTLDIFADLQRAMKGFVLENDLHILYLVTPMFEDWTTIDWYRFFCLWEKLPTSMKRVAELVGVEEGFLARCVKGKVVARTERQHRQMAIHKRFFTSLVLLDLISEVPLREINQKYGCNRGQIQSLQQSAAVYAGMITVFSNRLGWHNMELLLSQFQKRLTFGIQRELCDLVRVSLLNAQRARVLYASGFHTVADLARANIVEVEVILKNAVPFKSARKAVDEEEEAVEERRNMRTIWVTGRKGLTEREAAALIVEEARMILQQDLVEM

B1: FAM-15T no MH (dsDNA)
DNA 1: CCAACCGACCACACCCACCACCCTACCGCCTTTTTTTTTTTTTTTTT
DNA 2: GGCGGTAGGGTGGTGGGTGTGGTCGGTTGG
In the case of B1, the binding result in data set [1] is “binds”.

B2: FAM-9T + MH (dsDNA)
DNA 1: CCAACCGACCACACCCACCACCCTACCGCCTTTTTTTTTCCCGGG
DNA 2: B1 DNA 2
Consider B2, for which, in data set [1], the binding result is “binds”.

B3: 9-nt poly(T) with MH (unlabeled) (dsDNA)
DNA 1: B2 DNA 1
DNA 2: B1 DNA 2
Turning to B3, the binding result in data set [2] is listed as “binds”.

B4: FAM-11T + MH (dsDNA)
DNA 1: CCAACCGACCACACCCACCACCCTACCGCCTTTTTTTTTTTCCCGGG
DNA 2: B1 DNA 2
In the case of B4, the binding result in data set [1] was “binds”.

B5: 11-nt poly(T) with MH (unlabeled) (dsDNA)
DNA 1: B4 DNA 1
DNA 2: B1 DNA 2
For the molecule B5, in data set [3], the binding result is “binds”.

B6: 15-nt poly(T) without MH (unlabeled) (dsDNA)
DNA 1: CCAACCGACCACACCCACCACCCTACCGCCTTTTTTTTTTTTTTT
DNA 2: B1 DNA 2
B6: the binding result in data set [2] is recorded as “binds”.
